Measurements taken from patent US20230399394A1 (SUNSHINE GUOJIAN PHARMACEUTICAL SHANGHAI, published 2023).

T1: Cynomolgus IL-33-his (cynomolgus, UniProt A0A2K5W3I1 112-269, biotinylated in the ELISA of Example 6)
T1 construct: Bought protein; also called cynomolgus IL-33 protein; Cynomolgus monkeys IL-33
T1 sequence: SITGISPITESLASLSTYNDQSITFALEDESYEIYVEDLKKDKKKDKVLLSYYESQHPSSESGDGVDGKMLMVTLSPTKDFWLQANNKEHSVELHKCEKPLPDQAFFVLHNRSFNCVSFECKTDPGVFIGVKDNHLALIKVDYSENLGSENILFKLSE

T2: IL-33 protein without any mutation (WT) (human, UniProt O95760 112-270)
T2 construct: Control of the alanine scan (four runs WT-1 to WT-4); also called WT-1; WT-2
T2 sequence: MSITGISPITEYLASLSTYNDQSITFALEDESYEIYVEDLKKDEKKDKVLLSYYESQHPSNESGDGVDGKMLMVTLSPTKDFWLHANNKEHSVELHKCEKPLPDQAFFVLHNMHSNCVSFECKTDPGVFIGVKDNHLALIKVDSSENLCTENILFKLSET

T3: IL-33 mutant protein K70A (human, UniProt O95760 112-270)
T3 construct: Prokaryotic expression
T3 chain: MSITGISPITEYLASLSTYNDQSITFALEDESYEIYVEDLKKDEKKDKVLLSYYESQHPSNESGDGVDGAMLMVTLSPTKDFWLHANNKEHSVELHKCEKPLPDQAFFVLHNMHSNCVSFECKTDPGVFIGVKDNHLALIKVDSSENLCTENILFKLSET

T4: IL-33 mutant protein Y53A (human, UniProt O95760 112-270)
T4 construct: Prokaryotic expression
T4 chain: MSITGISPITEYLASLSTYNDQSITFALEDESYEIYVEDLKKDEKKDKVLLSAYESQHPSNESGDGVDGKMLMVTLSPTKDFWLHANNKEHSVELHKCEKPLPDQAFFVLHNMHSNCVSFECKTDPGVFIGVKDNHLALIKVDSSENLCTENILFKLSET


Key:
[1] = molecular target: T1, Cynomolgus IL-33-his; assay: indirect ELISA, biotinylated cynomolgus IL-33-his on streptavidin plate
Description: The binding ability of murine antibody to cynomolgus IL-33 was determined by indirect enzyme-linked immunosorbent assay (ELISA). The specific methods were as follows: The plate was pre-coated by biotin-avidin (SA) which was diluted in coating solution (50 mM carbonate coating buffer, pH 9.6) to 2 μg/ml at 4° C. overnight. The plate was blocked with 5% skim milk powder at 37° C. for 2 hours, and stored at −80° C. for later use. Biotinylated recombinant cynomolgus IL-33-his protein was diluted to 1 μg/ml in coating solution (50 mM carbonate coating buffer, pH 9.6) and was added at 100 μl/well to the pre-coated SA plate for 0.5 h at 37° C. After washing the plate with PBST for 3 times, the antibodies to be tested were diluted by gradient with 1% BSA buffer and added into the blocked plate with 100 μl/well, and incubated at 37° C. for 1 hour. The plate was washed with PBST for 3 times, and the HRP-labeled goat anti-mouse IgG was added and placed at 37° C. for 30 min. After washing the plate with PBST for 3 times, the plate was patted on the absorbent paper to remove residual droplets as far as possible. […] OD values were read at 450 nm on the microplate reader to analyze the binding ability of the antibody to the target antigen cynomolgus IL-33-his.

[2] = molecular target: T2, IL-33 protein without any mutation (WT); assay: ELISA as Example 9; row WT-1
Description: (§1) SA protein was diluted to 2 μg/mL to coat ELISA plate at 100 μL/well overnight at 4° C. The plate was washed with PBST (PBS containing 0.05% Tween20) for 3 times, and blocked with 2% BSA prepared in PBS at 200 μL/well, at room temperature for 2 h. After the plate was washed twice with PBST, IL-33-his-biotin protein was diluted to 1 μg/mL with 1% BSA prepared in PBST, and was added to ELISA plate at 100 μL/well. The plate was incubated at room temperature for 1 h, and each monoclonal antibody was diluted with 1% BSA prepared in PBST in a 3-fold gradient. The highest concentration of antibody was 10 μg/mL, and the antibody was diluted for 12 gradients. Each diluted monoclonal antibody was added to ELISA wells with 100 μL/well, and the plate was incubated at room temperature for 1 h. Each sample was added to duplicate wells in parallel. The plate was washed with PBST for 3 times, and HRP-anti human IgG Fc secondary antibody prepared with PBST was diluted at an appropriate ratio, and was added to ELISA wells at 100 μL/well. […] Each reaction solution was shaken uniformly and OD450 nm was read on a microplate reader. The data was analyzed and EC₅₀ was calculated.
(§2) Subsequently, according to the experimental method of Example 9, the affinity of the above mutant proteins to 874F7-Hu1 was determined, and IL-33 proteins (WT-1, WT-2, WT-3, and WT-4) without any mutation were set as controls.

[3] = molecular target: T3, IL-33 mutant protein K70A; assay: ELISA as Example 9; row K70A against WT-3
Description: as §1, §2

[4] = molecular target: T4, IL-33 mutant protein Y53A; assay: ELISA as Example 9; row Y53A against WT-2
Description: as §1, §2

[5] = molecular target: T2, IL-33 protein without any mutation (WT); assay: ELISA as Example 9; row WT-2, the reference itself
Description: as §1, §2

| EC50 [1] [nM] | EC50 [2] [nM] | Affinity decline ratio [3] [fold] | Affinity decline ratio [4] [fold] | Affinity decline ratio [5] [fold] | Binder |
| --- | --- | --- | --- | --- | --- |
| 0.03 | – | – | – | – | 874F7 (antibody, V domains shown, Murine hybridoma antibody purified on Protein G; also called murine antibody 874F7) VH: QVQLKESGPGLVAPSHSLSITCNVSGFSLSKYGVHWIRQIPGRGLDWLGVLRAGGSTGYNSALMSRLSISKDSSKSQVFLKMNDLRTDDTAVYFCVRDHYYYSSYGGFVYWGQGTLVTVSA VL: DIQMTQSPASQSASLGESVTITCLASQTIGAWLAWYRQQPGKSPQLLIYAATRLADGVPSRFSGSGSGTEFSFKINNLQAEDFVSYYCQQLDSSPYTFGGGTRLEM |
| – | 0.23 | 0.6 | 3.3 | 1 | 874F7-Hu1 (antibody, human IgG4 S228P, kappa, also called 874F7-Hul; humanized antibody 874F7-Hu1) heavy: not shown light: DIQMTQSPSSVSASVGDRVTITCLASQTIGAWLAWYQQKPGKSPKLLIYAATRLADGVPSRFSGSGSGTDFTLTISSLQPEDFATYYCQQLDSSPYTFGQGTKVEIKRTVAAPSVFIFPPSDEQLKSGTASVVCLLNNFYPREAKVQWKVDNALQSGNSQESVTEQDSKDSTYSLSSTLTLSKADYEKHKVYACEVTHQGLSSPVTKSFNRGEC |
